Results: paper PMC2910045 (Nucleic Acids Research, 2010)
Read-outs that look alike come from different tables or passages of the source.

What was measured:
SEC [1] = molecular target: the molecule itself; experiment: SEC
SEC [2] = molecular target: the molecule itself; experiment: SEC; remark: listed apart in the source
SopB FL [3] = molecular target: T1, SopB FL (Escherichia coli F plasmid, UniProt P62558 1-323); experiment: fluorescence polarization
T1 sequence: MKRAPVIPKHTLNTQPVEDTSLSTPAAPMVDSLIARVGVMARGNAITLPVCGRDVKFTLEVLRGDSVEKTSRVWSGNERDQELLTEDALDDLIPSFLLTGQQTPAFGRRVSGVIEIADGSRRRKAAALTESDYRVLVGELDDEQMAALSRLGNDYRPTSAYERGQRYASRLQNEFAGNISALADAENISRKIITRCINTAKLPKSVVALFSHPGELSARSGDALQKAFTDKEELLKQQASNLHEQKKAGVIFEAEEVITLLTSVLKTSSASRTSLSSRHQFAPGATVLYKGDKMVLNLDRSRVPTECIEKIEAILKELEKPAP

SopB FL [4] = molecular target: T1, SopB FL; experiment: X-ray crystallography
SopB(155-323) = molecular target: T2, SopB(155-323) (Escherichia coli F plasmid, UniProt P62558 155-323); experiment: X-ray crystallography
T2 sequence: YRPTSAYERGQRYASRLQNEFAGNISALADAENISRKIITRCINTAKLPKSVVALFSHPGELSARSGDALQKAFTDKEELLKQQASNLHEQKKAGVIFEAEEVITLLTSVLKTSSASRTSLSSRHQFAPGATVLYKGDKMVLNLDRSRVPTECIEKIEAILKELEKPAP

B1: SopB(155–272) (domain or fragment, F plasmid, UniProt P62558 155-272, looked up)
chain: YRPTSAYERGQRYASRLQNEFAGNISALADAENISRKIITRCINTAKLPKSVVALFSHPGELSARSGDALQKAFTDKEELLKQQASNLHEQKKAGVIFEAEEVITLLTSVLKTSSASR
stoichiometry N (SEC [1]): 2

LSSRHQFAPGATVLYKGDKMVLNLDRSRVPTECIEKIEAILKELEKPAP (domain or fragment, F plasmid, UniProt P62558 275-323, looked up) [SopB(275–323)]
stoichiometry N (SEC [2]): 2

B2: sopC 43mer (FP) (dsDNA)
DNA 1: GGTCTGATTATTAGTCTGGGACCACGGTCCCACTCGTATCGTC
DNA 2: GACGATACGAGTGGGACCGTGGTCCCAGACTAATAATCAGACC
Kd (SopB FL [3]): 324 ± 43 nM

B3: sopC 18mer (FP) (dsDNA)
DNA 1: CTGGGACCATGGTCCCAG
DNA 2: CTGGGACCATGGTCCCAG
Kd (SopB FL [3]): 223 ± 44 nM

B4: sopC 18mer 5-bromouracil (dsDNA)
DNA 1: CTGGGACCATGGTCCCAG
DNA 2: CTGGGACCATGGTCCCAG
modifications: 5-bromouracil substitutions (positions not given)
binding result (SopB FL [4]): binds | binding result (SopB(155-323)): binds
